Consider 2 molecules from article PMC4740771, “Nucleotide-dependent assembly of the peroxisomal receptor export complex” (Scientific Reports, 2016).

Series [1] deals with the molecule itself. The experiment in a line: SEC; as a1 but isolated and run in the presence of 5 mM ADP instead of ATP.
The target in series [2] is T1, Pex1/6pWB complex (wild-type Pex1p with Pex6p E832Q) (S. cerevisiae, UniProt P24004 1-1043; P33760 1-1030, E832Q).
T1 construct: Pex1p of yeast, as the chain of m3; Pex6p of yeast with the Walker B mutation of the D2 domain; also called Pex1p/Pex6pWB; Pex6WB mutant complex; not shown: His6, N-terminal, kept; GST, C-terminal, cleaved; copies: 3 + 3
Kind of series: pull-down; GST-Pex15p(1-315)His incubated with purified proteins, loaded on GSH-agarose, eluted with glutathione; 5 mM ATP; Coomassie and immunoblot, signal intensities of load and eluate. The following applies: both partners purified.

The target of another series is T2, HisPex6p (S. cerevisiae, UniProt P33760 1-1030).
T2 construct: Pex6p, type II AAA-ATPase peroxin of yeast; also called single Pex6p; isolated Pex6p; source: E. coli Tuner (DE3), purified (NiNTA-agarose; with HisPex1pGST also GSH-agarose and size exclusion); not shown: His6, N-terminal, kept
T2 sequence (looked up): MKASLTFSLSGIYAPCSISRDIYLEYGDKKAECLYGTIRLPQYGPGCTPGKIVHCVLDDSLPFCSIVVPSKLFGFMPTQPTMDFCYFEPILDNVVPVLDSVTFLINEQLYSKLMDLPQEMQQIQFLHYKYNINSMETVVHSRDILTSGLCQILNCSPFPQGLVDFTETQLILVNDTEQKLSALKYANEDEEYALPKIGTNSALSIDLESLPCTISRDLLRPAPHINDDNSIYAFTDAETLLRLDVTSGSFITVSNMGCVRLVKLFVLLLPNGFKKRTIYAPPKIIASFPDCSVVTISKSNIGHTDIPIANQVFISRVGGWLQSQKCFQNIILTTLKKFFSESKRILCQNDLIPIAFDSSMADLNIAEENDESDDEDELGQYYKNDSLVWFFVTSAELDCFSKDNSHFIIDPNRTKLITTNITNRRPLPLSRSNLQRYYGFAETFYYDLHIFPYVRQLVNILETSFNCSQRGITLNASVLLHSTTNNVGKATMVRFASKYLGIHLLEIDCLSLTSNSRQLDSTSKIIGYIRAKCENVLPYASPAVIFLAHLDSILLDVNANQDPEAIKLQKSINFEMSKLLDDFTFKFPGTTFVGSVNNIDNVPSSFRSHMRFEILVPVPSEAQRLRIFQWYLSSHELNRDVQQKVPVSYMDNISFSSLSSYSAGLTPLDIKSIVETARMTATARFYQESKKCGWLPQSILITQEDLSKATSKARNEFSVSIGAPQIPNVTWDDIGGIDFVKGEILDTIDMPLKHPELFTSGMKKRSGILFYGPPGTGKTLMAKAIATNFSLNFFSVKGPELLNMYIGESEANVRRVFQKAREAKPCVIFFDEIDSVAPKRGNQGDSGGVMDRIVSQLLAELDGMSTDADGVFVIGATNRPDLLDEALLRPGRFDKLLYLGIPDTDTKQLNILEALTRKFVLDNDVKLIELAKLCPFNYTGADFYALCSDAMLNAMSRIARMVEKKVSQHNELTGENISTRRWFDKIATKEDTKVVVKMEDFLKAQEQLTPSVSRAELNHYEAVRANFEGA
The series is described as above. The following applies: both partners purified.

Series [3] concerns the target T3, Pex1WB/6p complex (Pex1p E798Q with wild-type Pex6p) (S. cerevisiae, UniProt P24004 1-1043; P33760 1-1030, E798Q).
T3 construct: Pex1p of yeast with the Walker B mutation of the D2 domain; Pex6p of yeast, as the chain of m2; also called Pex1WB^E798Q/6p; not shown: His6, N-terminal, kept; GST, C-terminal, cleaved; copies: 3 + 3
Described as above. Conditions: both partners purified.

Series [4] deals with T4, Pex1/6p-complex (recombinant heterohexameric AAA-complex) (S. cerevisiae, UniProt P24004 1-1043; P33760 1-1030).
T4 construct: Pex1p of yeast, as the chain of m3; Pex6p of yeast, as the chain of m2; Described as a trimer of Pex1/6p dimers (heterohexamer, about 700 kDa); Isolated in 5 mM ATP or 5 mM ADP as said for each assay; also called Pex1p/Pex6p-complex; wild-type Pex1/6p; source: E. coli Tuner (DE3), cells mixed and lysed, co-purified (NiNTA-agarose, GSH-agarose, thrombin release, size exclusion); not shown: His6, …
The description is as above. Conditions: both partners purified.

B1: HisPex1p released from HisPex1pGST by thrombin (natural protein, S. cerevisiae, UniProt P24004 1-1043, looked up)
chain: MTTTKRLKFENLRIQFSNAIVGNFLRLPHSIINVLESTNYAIQEFGIAVHSHNSDIPIVHLGWDGHDSGSSENVVLINPVLATVYDLNQKSPLVDLYIQRYDHTHLATEVYVTPETSDDWEIIDANAMRFQNGEILHQTRIVTPGETLICYLEGIVTKFKIDRVEPSMKSARITDGSLVVVAPKVNKTRLVKAEYGHSNKTILKNGAIQLLKKVILRSTVCKMDFPKDNLFVVYISDGAQLPSQKGYASIVKCSLRQSKKSDSDNKSVGIPSKKIGVFIKCDSQIPENHIALSSHLWDAFFTHPMNGAKIKLEFLQMNQANIISGRNATVNIKYFGKDVPTKSGDQYSKLLGGSLLTNNLILPTEQIIIEIKKGESEQQLCNLNEISNESVQWKVTQMGKEEVKDIIERHLPKHYHVKETGEVSRTSKDEDDFITVNSIKKEMVNYLTSPIIATPAIILDGKQGIGKTRLLKELINEVEKDHHIFVKYADCETLHETSNLDKTQKLIMEWCSFCYWYGPSLIVLDNVEALFGKPQANDGDPSNNGQWDNASKLLNFFINQVTKIFNKDNKRIRVLFSGKQKTQINPLLFDKHFVSETWSLRAPDKHARAKLLEYFFSKNQIMKLNRDLQFSDLSLETEGFSPLDLEIFTEKIFYDLQLERDCDNVVTRELFSKSLSAFTPSALRGVKLTKETNIKWGDIGALANAKDVLLETLEWPTKYEPIFVNCPLRLRSGILLYGYPGCGKTLLASAVAQQCGLNFISVKGPEILNKFIGASEQNIRELFERAQSVKPCILFFDEFDSIAPKRGHDSTGVTDRVVNQLLTQMDGAEGLDGVYILAATSRPDLIDSALLRPGRLDKSVICNIPTESERLDILQAIVNSKDKDTGQKKFALEKNADLKLIAEKTAGFSGADLQGLCYNAYLKSVHRWLSAADQSEVVPGNDNIEYFSINEHGRREENRLRLKTLLQQDVVHETKTSTSAASELTAVVTINDLLEACQETKPSISTSELVKLRGIYDRFQKDRNGEMPNGENSIDIGSRLSLM
notes: Pex1p, type II AAA-ATPase peroxin of yeast; The GST tag held the complex on GSH-agarose during purification and stayed on the column after thrombin cleavage; source: E. coli Tuner (DE3), co-purified with HisPex6p (NiNTA-agarose, GSH-agarose, thrombin release); not shown: His6, N-terminal, kept; GST, C-terminal, cleaved
As for B1, in series [1], the “stoichiometry N” value worked out at 3.

B2: GST-Pex15p(1-315)His (domain or fragment, S. cerevisiae, UniProt Q08215 1-315, looked up)
chain: MAASEIMNNLPMHSLDSSLRDLLNDDLFIESDESTKSVNDQRSEVFQECVNLFIKRDIKDCLEKMSEVGFIDITVFKSNPMILDLFVSACDIMPSFTKLGLTLQSEILNIFTLDTPQCIETRKIILGDLSKLLVINKFFRCCIKVIQFNLTDHTEQEEKTLELESIMSDFIFVYITKMRTTIDVVGLQELIEIFIFQVKVKLHHKKPSPNMYWALCKTLPKLSPTLKGLYLSKDVSIEDAILNSIDNKIQKDKAKSKGKQRGVKQKIHHFHEPMLHNSSEEQVKVEDAFNQRTSTDSRLQSTGTAPRKKNNDITV
notes: Pex15p, tail-anchored peroxisomal membrane protein of S. cerevisiae (genomic DNA of strain UTL-7A), cytosolic part, residues 1 to 315; also called cytosolic domain of Pex15p; source: E. coli BL21 (DE3), purified (Glutathione Agarose 4B, dialysis); not shown: GST, N-terminal, kept; His6, C-terminal, kept
Turning to B2, the binding result (in series [2]; with HisPex6p; in series [3]; in series [4]) was “binds” throughout.
